Test [1] has as its target human FOLR1 recombinant protein (extracellular domain of human folate receptor alpha) (human) (UniProt P15328). The test is described as follows: ELISA; coated recombinant protein, HA-tagged VHH in bacterial extract, anti-HA detection; A405 antigen well / blank well.
The target of test [2] is T1, human folate receptor gamma (FOLR3), recombinant (human, UniProt P41439 23-245, limits assumed).
T1 construct: extracellular domain; Bought protein; also called human FOLR3
The experiment in a line: ELISA, coated recombinant protein, HA-tagged VHH in bacterial extract. The method, then: (§1) The day before, 0.1 µg recombinant protein at a concentration of 1 µg/mL in 100 mM NaHCO3, pH 8.2 was coated in a 96-well ELISA plate (Nunc MaxiSorp). Per VHH clone also a blank coated well was foreseen (only buffer). The wells were overcoated with protein-free T20 (PBS) blocking buffer (Pierce). After washing with PBS, pH7.4, 0.05% Tween, VHH-containing bacterial extract was added to every well. Binding of HA-tagged VHHs was detected by using mouse anti-HA.11 epitope tag (clone 16B12, Biolegend) as the primary Ab and goat anti-mouse IgG (whole molecule) alkaline phosphatase conjugate (Sigma-Aldrich) as the secondary Ab, with thorough washing with PBS, pH 7.4, 0.05% Tween in between. Signals were developed using phosphatase substrate (Sigma-Aldrich) in AP blot buffer (100 mM NaCl, 50 mM MgCl2, 100 mM Tris, pH 9.5). The absorbance was determined at 405 nm using an absorbance microplate reader (Molecular Devices). Per clone the ratio was determined between the absorbance in the antigen-coated well versus the well without antigen.
For orientation: ELISA stands for enzyme-linked immunosorbent assay.

For test [3], the target named is T2, human folate receptor beta (FOLR2), extracellular domain, recombinant (human, UniProt P14207 17-228, limits assumed).
T2 construct: extracellular domain; Bought protein; also called human FOLR2
The description is as above. The method, then: as §1

Test [4] concerns the target T1, human folate receptor gamma (FOLR3), …. The test is described as follows: ELISA; coated recombinant protein, HA-tagged VHH in bacterial extract, anti-HA detection; A405 antigen well / blank well. The method, then:
as §1

Test [5] has as its target T2, human folate receptor beta (FOLR2), …. The test is described as above. The method, then:
as §1

The target of test [6] is T3, human FOLR1 expressed on SKOV-3 ovarian carcinoma cells (human, UniProt P15328 25-234).
T3 construct: Naturally expressed receptor on SKOV-3 cells; also called human FOLR1pos SKOV-3 cancer cells; human FOLR1-expressing cell line SKOV-3
The experiment in a line: cellular retention on SKOV-3 cells: 10 nM 131I-VHH 1 h at 4 C, then up to 24 h at 37 C; membrane-bound plus internalized fraction. The method, then:
The in vitro cellular retention of the different His₆- and untagged ¹³¹I-labeled VHHs was assessed on the same cancer cells. In this particular case, human FOLR1^pos SKOV-3 cancer cells were incubated with 10 nM ¹³¹I-labelled VHHs for 1h at 4° C., after which the unbound fraction was collected. A 100-fold excess of the corresponding unlabeled VHH to assess non-specific binding. Next, the cells were incubated with fresh medium up to 24 h at 37° C., after which the dissociated fraction was collected. Afterwards, the cells were washed with 0.05 M glycine pH 2.8 to collect the membrane-bound fraction. Finally, cells were solubilized with 1 M NaOH at room temperature to collect the internalized fraction. The sum of the membrane-bound and internalized fractions corresponds to the total cell-associated fraction.

For test [7], the target named is T3, human FOLR1 expressed on SKOV-3 ovarian …. The experiment in a line: saturation binding of 131I-labelled His6-tagged VHH on SKOV-3 cells (0-300 nM); non-specific binding by 100-fold unlabelled VHH. The method, then: In a first part, their in vitro behaviour was assessed by means of investigating their cellular binding and retention over time. The binding potential of the resulting radioconjugates was assessed to confirm that this was not affected by the introduction of ¹³¹I-SGMIB into the amino acid sequence of the different VHHs. To this, human FOLR1^pos SKOV-3 cancer cells were incubated with serial dilutions with concentrations ranging from 0 to 300 nM of the different ¹³¹I-labelled, His₆ tagged VHHs. A 100-fold excess of the corresponding unlabeled VHH was added in parallel to saturate the human FOLR1 receptors expressed on cancer cells, to assess non-specific binding.

In test [8] the target is T4, human FOLR1 recombinant protein (extracellular domain of human folate receptor alpha) (human, UniProt P15328 25-233).
T4 construct: Bought recombinant protein (Sino Biological); also called hFOLR1; FR-alpha
The experiment in a line: SPR dual injection on immobilized human FOLR1, 250 nM; competitor (1st VHH, saturating) A1; by the legend the value is of the 2nd VHH. The method, then:
(§2) Competitive binding characteristics of His₆-tagged VHHs were determined via surface plasmon resonance with a Biacore T200 instrument (GE Healthcare). Immobilization of human FOLR1 recombinant protein (Sino Biological) and regeneration were performed as described below for kinetic measurements.
(§3) Table 8: Side-by-side comparison of His₆-tagged VHHs A1, A2, A3, A4, A5 for binding to human FOLR1 to identify competitive binding characteristics. Binding was measured in surface plasmon resonance with immobilized human FOLR1 recombinant protein as the ligand. After saturation of the ligand with VHH 1 an equimolar mixture of VHH 1 and VHH 2 was injected. Percentages express the loss in response level of VHH 2, relative to the response when VHH 2 was injected alone.

In test [9] the target is T4, human FOLR1 recombinant protein …. The test is described as follows: SPR dual injection on immobilized human FOLR1, 250 nM; competitor (1st VHH, saturating) A5; by the legend the value is of the 2nd VHH. The method, then:
as §2, §3

Test [10] shares this target. The test is described as follows: SPR dual injection on immobilized human FOLR1, 250 nM; competitor (1st VHH, saturating) A3; by the legend the value is of the 2nd VHH. The method, then:
as §2, §3

The target is the same in test [11]. The experiment in a line: SPR dual injection on immobilized human FOLR1, 250 nM; competitor (1st VHH, saturating) A4; by the legend the value is of the 2nd VHH. The protocol:
as §2, §3

The target is the same in test [12]. The experiment in a line: SPR (Biacore T200), single cycle kinetics, His6-tagged VHH immobilized on CM5, human FOLR1 as analyte, 1:1 fit. The method, then:
The kinetic parameters of antigen binding for purified VHHs A1, A2 and A3 were determined via surface plasmon resonance with a Biacore T200 instrument (GE Healthcare) using single cycle kinetics mode. While example 4d provides a first and preferred way of assessing the kinetic parameters of antigen binding for VHHs using surface plasmon resonance, this example provides an alternative setup for using surface plasmon resonance to assess the kinetic parameters of antigen binding, inverting the analyte and immobilized ligand. His₆-tagged VHH A1, A2 or A3 was immobilized in 10 mM sodium acetate, pH 5.5 on a CM5 chip (GE Healthcare) via amine coupling chemistry to 160 RU. The human FOLR1 recombinant protein (Sino Biological) was analyzed in a threefold serial dilution in HBS (38.5 nM-0.47 nM) with an analyte flow rate of 30 µl/min. The association phase took 180 s for every concentration and the dissociation phase 900 s. Regeneration was done by a single injection of 50 mM glycine-HCl, pH 2.5, 2 M MgCl2 for 30 s at 30 µl/min, followed by 120 s stabilization. Binding curves were fitted using a ‘1:1 (antigen:analyte)’ binding model in Biacore T200 evaluation software.
Background: In SPR one partner is held on a chip, and binding of the other changes the refractive index at the surface.

For test [13] the target is unchanged. The experiment in a line: SPR (Biacore T200), human FOLR1 immobilized on CM5, His6-tagged VHH as analyte, 1:1 fit. The protocol:
The kinetic parameters of antigen binding by purified VHHs were determined via surface plasmon resonance with a Biacore T200 instrument (GE Healthcare). The human FOLR1 recombinant protein (Sino Biological) was immobilized in 10 mM sodium acetate, pH 5.5 on a CM5 chip (GE Healthcare) via amine coupling chemistry to 500 RU. His₆-tagged VHHs were analyzed in a twofold serial dilution in HBS (125 nM-0.488 nM for VHHs A4 and A5; 10 nM-0.039 nM for VHHs A1, A2 and A3) with an analyte flow rate of 30 µl/min. The association phase took 180 s (A4-A5) or 450 s (A1-A3) and the dissociation phase 600 s (A4-A5) or 900 s (A1-A3). Regeneration was done by a single injection of 50 mM glycine-HCl, pH 2.5, 2 M MgCl₂ for 30 s at 30 µl/min, followed by 120 s stabilization. Binding curves were fitted using a ‘1:1 (antigen:analyte)’ binding model in Biacore T200 evaluation software.

Substitutions are numbered along the chain they refer to.

T4 sequence (P15328 25-233): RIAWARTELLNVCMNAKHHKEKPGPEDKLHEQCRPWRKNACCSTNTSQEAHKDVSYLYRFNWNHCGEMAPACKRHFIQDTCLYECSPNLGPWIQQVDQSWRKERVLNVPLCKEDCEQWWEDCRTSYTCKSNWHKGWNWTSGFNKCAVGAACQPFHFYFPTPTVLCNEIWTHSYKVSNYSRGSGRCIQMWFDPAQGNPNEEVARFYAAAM
T3 sequence (P15328 25-234 limits assumed): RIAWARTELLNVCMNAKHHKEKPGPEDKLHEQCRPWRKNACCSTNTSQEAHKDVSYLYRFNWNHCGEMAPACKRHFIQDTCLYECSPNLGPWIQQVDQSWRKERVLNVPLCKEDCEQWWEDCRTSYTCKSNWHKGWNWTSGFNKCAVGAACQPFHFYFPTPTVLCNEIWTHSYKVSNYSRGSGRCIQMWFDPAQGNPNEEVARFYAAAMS
T2 sequence (P14207 17-228 limits assumed): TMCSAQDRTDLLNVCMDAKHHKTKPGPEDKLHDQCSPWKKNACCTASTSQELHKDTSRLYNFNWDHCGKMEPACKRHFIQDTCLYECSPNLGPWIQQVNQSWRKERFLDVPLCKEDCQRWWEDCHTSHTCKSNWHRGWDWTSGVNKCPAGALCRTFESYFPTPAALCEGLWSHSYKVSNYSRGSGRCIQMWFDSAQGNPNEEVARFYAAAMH
T1 sequence (P41439 23-245 limits assumed): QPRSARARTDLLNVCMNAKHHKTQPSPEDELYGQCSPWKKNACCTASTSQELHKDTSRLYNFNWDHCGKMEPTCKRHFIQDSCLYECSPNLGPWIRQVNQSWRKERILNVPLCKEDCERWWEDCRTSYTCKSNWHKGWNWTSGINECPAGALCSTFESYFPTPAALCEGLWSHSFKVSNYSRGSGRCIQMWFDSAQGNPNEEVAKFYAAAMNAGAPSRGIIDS
Chain of human FOLR1 recombinant protein (extracellular domain of human folate receptor alpha) (human) (P15328 25-233): as the sequence (P15328 25-233) above

B1: HA-tagged variant of VHH A2 (VHH)
VHH: QVQLQESGGGLVQAGGSLRLSCAADEMKFSNYDLAWYRRAPGKQRELAAIITSGGSTNYPDSVKGRFTISRDNAKNTVYLEMNSLKPEDTAVYYCNALRPWPQFSDYWGQGTQVTVSS
notes: Used as VHH-containing bacterial (periplasmic) extract in ELISA; also called A2 HA-tag
Regarding B1, the signal-to-background ratio in [1] is greater than 20; in [4], roughly 1; in [5], roughly 1. For the same molecule, the binding result in [2] and in [3] was “no binding” each time.

B2: 131I-labeled His6-tagged VHH A2 (VHH)
VHH: B1 VHH with Q1D, Q5V
modifications: [131I]SGMIB conjugated to lysine side-chain amine groups
For orientation: EC50 means the concentration giving half of the maximal effect. The low end stands for an effect from little substance, the high end for a need for much substance. For B2, the “cell-associated fraction of initial bound activity after 24 h” value in [6] was roughly 60%. The molecule further returned an EC50 in [7] of 1.1 nM.

B3: His6-tagged variant of VHH A2 (VHH)
VHH: B1 VHH with Q1D, Q5V
notes: Purified, unlabelled; also called A2 His6-tag
In general, Kd refers to the constant that tells how readily two partners part at equilibrium. For orientation: koff means a measure of how fast the partners let go of each other. In general, kon refers to the rate constant with which the complex forms. With B3, the “loss in response level of VHH 2 relative to VHH 2 injected alone” value was -96% in test [8], -86% in [9], -99% in test [10] and -96% in test [11]. Also, the dissociation constant Kd was found to be 1.5 nM in test [12] and 0.24 nM in test [13]. Besides, the koff in test [12] was found to be 0.00068 s⁻¹; in test [13] it was 0.00033 s⁻¹. Further, the association rate constant (kon) in test [12] was found to be 440000 M⁻¹ s⁻¹; in test [13] it was 1.3e+06 M⁻¹ s⁻¹.

B4: His6-tagged variant of VHH A3 (VHH)
VHH: DVQLVESGGGLVQAGGSLRLSCGVSGNMFSMNLMGWYRQPPGKERDWVAVITKDGSTNYADSVKGRFTISRDNAKNTVSLQMNSLKPEDTAVYYCNVQDGSGWIRAWGWDWGQGTQVTVSS
notes: Purified, unlabelled; also called A3 His6-tag
Take B4: the “loss in response level of VHH 2 relative to VHH 2 injected alone” value is -97% in test [8], -89% in test [9] and -97% in test [11]. The Kd in test [12] came to 1.9 nM; in test [13], 0.92 nM. Besides, the results for the koff in [12] and in test [13] were 0.00063 s⁻¹ and 0.0011 s⁻¹, respectively. For the same molecule, the figures for the kon in test [12] and in [13] were 330000 M⁻¹ s⁻¹ and 1.2e+06 M⁻¹ s⁻¹, respectively.

B5: 131I-labeled His6-tagged VHH A3 (VHH)
VHH: B4 VHH
modifications: [131I]SGMIB conjugated to lysine side-chain amine groups
Consider B5, for which, in test [6], the “cell-associated fraction of initial bound activity after 24 h” value was determined as 20%. It took 4.5 nM to reach a half-maximal effect in test [7] (EC50).

B6: 131I-labeled His6-tagged VHH A1 (VHH)
VHH: DVQLVESGGGLVQPGGSLRLSCAASESIFSRNHMSWYRQAPGKQRELAAIITSDGNTNYPDSVKGRFTISRDNAKNTVYLQMNSLKPEDTAVYYCNTFGRSVAGFYDYWGQGTQVTVSS
modifications: [131I]SGMIB conjugated to lysine side-chain amine groups
Turning to B6, the “cell-associated fraction of initial bound activity after 24 h” value in [6] is roughly 40%. It took 0.7 nM to reach a half-maximal effect in test [7] (EC50).

B7: 131I-labeled His6-tagged VHH A4 (VHH)
VHH: DVQLVESGGGLARAGGSLRLSCAASGRAFSSTYAMGWFRQAPGKEREFVADINWSEGSPMYIDSVKDRFTISRDNARNSLYLQMNSLKSEDTAVYYCAARRFGQGYEYWGQGTQVTVSS
modifications: [131I]SGMIB conjugated to lysine side-chain amine groups
In the case of B7, the “cell-associated fraction of initial bound activity after 24 h” value in test [6] came out at 10%. The same molecule showed an EC50 in [7] of 5.8 nM.

These data come from patent publication US20230340111A1 (published 2023).
